Experimental data taken from patent US20240285753A1 (DUKE UNIVERSITY, published 2024).

Biological target: MERS spike (2P) (MERS-CoV, UniProt K9N5Q8 18-1291)
Experiment: ELISA, coated spike, mAb titrated

B1: DH1509 (antibody, V domains shown)
VH: QVQLVESGGGVVQPGRSLRLSCAASGFTLSSHGIHWVRQAPGKGLEWVAVTSFDGRNKKFGDSVKGRFTISRDNSKNTVYLQMNSLRTEDTAVYYCAKDWGDDYSRWYFDLWGRGTLVTVSS
VL: DIQMTQSPSSLSASVGDRVTITCQASHDITKYLNWYQQKPGRAPKLLIYDASNLKTGVPSRFSGSGSGTDFTFTITSLQPEDLATYYCQQSDVLPITFGQGTRLEIK
- EC50 (read off the curve): ~0.2 µg/mL
